Measured values as given in paper PMC9949273 (The Journal of Cell Biology, 2023).

B1: GST-tagged ATL3 (natural protein, human, UniProt Q6DD88 1-541, looked up)
chain: MLSPQRVAAAASRGADDAMESSKPGPVQVVLVQKDQHSFELDEKALASILLQDHIRDLDVVVVSVAGAFRKGKSFILDFMLRYLYSQKESGHSNWLGDPEEPLTGFSWRGGSDPETTGIQIWSEVFTVEKPGGKKVAVVLMDTQGAFDSQSTVKDCATIFALSTMTSSVQIYNLSQNIQEDDLQQLQLFTEYGRLAMDEIFQKPFQTLMFLVRDWSFPYEYSYGLQGGMAFLDKRLQVKEHQHEEIQNVRNHIHSCFSDVTCFLLPHPGLQVATSPDFDGKLKDIAGEFKEQLQALIPYVLNPSKLMEKEINGSKVTCRGLLEYFKAYIKIYQGEDLPHPKSMLQATAEANNLAAAASAKDIYYNNMEEVCGGEKPYLSPDILEEKHCEFKQLALDHFKKTKKMGGKDFSFRYQQELEEEIKELYENFCKHNGSKNVFSTFRTPAVLFTGIVALYIASGLTGFIGLEVVAQLFNCMVGLLLIALLTWGYIRYSGQYRELGGAIDFGAAYVLEQASSHIGNSTQATVRDAVVGRPSMDKKAQ

Columns and labels:
GST-tagged ATL3 = biological target: B1; experiment: pull-down
[1] = biological target: ATL2-1 (major splice isoform of ATL2) (human, UniProt Q8NHH9 1-583); experiment: cross-linking

Binder | binding result (GST-tagged ATL3) | binding result [1]
His6-tagged N-terminal cytoplasmic domain of ATL2 (1–480) (domain or fragment, human, UniProt Q8NHH9 1-480, looked up) MAEGDEAARGQQPHQGLWRRRRTSDPSAAVNHVSSTTSLGENYEDDDLVNSDEVMKKPCPVQIVLAHEDDHNFELDEEALEQILLQEHIRDLNIVVVSVAGAFRKGKSFLLDFMLRYMYNKDSQSWIGGNNEPLTGFTWRGGCERETTGIQVWNEVFVIDRPNGTKVAVLLMDTQGAFDSQSTIKDCATVFALSTMTSSVQVYNLSQNIQEDDLQHLQLFTEYGRLAMEEIYQKPFQTLMFLIRDWSYPYEHSYGLEGGKQFLEKRLQVKQNQHEELQNVRKHIHNCFSNLGCFLLPHPGLKVATNPSFDGRLKDIDEDFKRELRNLVPLLLAPENLVEKEISGSKVTCRDLVEYFKAYIKIYQGEELPHPKSMLQATAEANNLAAVAGARDTYCKSMEQVCGGDKPYIAPSDLERKHLDLKEVAIKQFRSVKKMGGDEFCRRYQDQLEAEIEETYANFIKHNDGKNIFYAARTPATLFA | binds | 
B1 |  | binds
